Test results as given in the supplement of paper PMC6757056.
± gives the standard deviation of the averaged measurements.

B1: library; a variant is named by its letters at N, in order (parent)
chain: GCUGUCACCGAGAAACUGUGAAGUAUAUCUUAAACCUGGGCACUUAAAAGAUAUAUGGAGUUAGUAGUGCAACCUGCUCGGUCUGAUGAGUCCNNNNNNGGACGAAACAGC

Key:
cyclic di-GMP [1] = variants of: B1; assay: normalized RNA/DNA level without ligand (relative to sTRSVctl = 100) (log10 (% of sTRSVctl)); HEK293T; ligand: cyclic di-GMP (c-di-GMP-II aptamer); higher = less ribozyme self-cleavage, higher mRNA level; details: reporter: mCherry (pCS4076), ligand present: no
Summary of the method: (§1)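 Total RNA, extracted with EDTA 72 h after HEK293T cells were transfected with 4 µg per 6-well well of reporter-linked ribozyme switch library plasmids, was reverse-transcribed, amplified, barcoded and sequenced. Ligand, if used, was added 1 h before transfection. RNA level was derived from RNA reads divided by DNA reads and normalized to a spiked-in non-cleaving sequence or to the top sequences. This was multiplied by 100 and log10-transformed, with the top set of 25 sequences and a ≥100 DNA read minimum.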

cyclic di-GMP [2] = variants of: B1; assay: normalized RNA/DNA level with ligand (relative to sTRSVctl = 100) (log10 (% of sTRSVctl)); HEK293T; ligand: cyclic di-GMP (c-di-GMP-II aptamer); ligand concentration (+) RNA-Seq: 1 mM; higher = less ribozyme self-cleavage, higher mRNA level; details: reporter: mCherry (pCS4076), ligand present: yes
Summary of the method: as §1

Row | Variant | normalized RNA/DNA level without ligand (log10) (cyclic di-GMP [1]) | normalized RNA/DNA level with ligand (log10) (cyclic di-GMP [2])
1 | AGUCUA | 1.55 ± 0.016 | 1.77 ± 0.12
2 | AGUCUG | 1.629 ± 0.012 | 1.76 ± 0.056
3 | AGUCUC | 1.764 ± 0.0076 | 1.88 ± 0.085
4 | GGUCGU | 1.66 ± 0.056 | 1.83 ± 0.036
5 | GGUCGC | 1.74 ± 0.034 | 1.87 ± 0.15
6 | GGUGCC | 1.82 ± 0.077 | 1.95 ± 0.15
7 | GGUGCA | 1.78 ± 0.12 | 1.91 ± 0.13
8 | UGGUUC | 1.7 ± 0.033 | 1.83 ± 0.12
9 | UGGUUA | 1.67 ± 0.019 | 1.85 ± 0.042
10 | UGGUUU | 1.761 ± 0.011 | 1.88 ± 0.12
11 | UGGUUG | 1.686 ± 0.011 | 1.83 ± 0.11
12 | AGGGGA | 1.53 ± 0.1 | 1.59 ± 0.054
13 | AGGGGG | 1.72 ± 0.026 | 1.81 ± 0.075
14 | AGGGGU | 1.57 ± 0.058 | 1.7 ± 0.13
15 | AGGGGC | 1.69 ± 0.1 | 1.83 ± 0.091
16 | UGUCGA | 1.76 ± 0.033 | 1.81 ± 0.14
17 | UGUCGU | 1.648 ± 0.0058 | 1.84 ± 0.12
18 | UGUCGG | 1.74 ± 0.027 | 1.86 ± 0.077
19 | UGUCGC | 1.76 ± 0.049 | 1.85 ± 0.15
20 | CGUCAC | 1.63 ± 0.065 | 1.78 ± 0.062
21 | CGUCAG | 1.79 ± 0.056 | 1.92 ± 0.11
22 | CGUCAU | 1.46 ± 0.042 | 1.64 ± 0.13
23 | UGUCAC | 1.75 ± 0.04 | 1.87 ± 0.15
24 | UGUCAU | 1.68 ± 0.049 | 1.81 ± 0.1

Row | Variant | normalized RNA/DNA level without ligand (log10) (cyclic di-GMP [1]) | normalized RNA/DNA level with ligand (log10) (cyclic di-GMP [2])
25 | UGUCAG | 1.67 ± 0.042 | 1.82 ± 0.1
26 | UGUCAA | 1.69 ± 0.048 | 1.82 ± 0.096
27 | CGUAGG | 1.71 ± 0.033 | 1.82 ± 0.14
28 | CGUAGA | 1.44 ± 0.016 | 1.64 ± 0.14
29 | CGUAGU | 1.69 ± 0.041 | 1.82 ± 0.13
30 | CGUAGC | 1.73 ± 0.062 | 1.83 ± 0.055
31 | CGGUAG | 1.731 ± 0.0046 | 1.84 ± 0.038
32 | AGUGCU | 1.67 ± 0.043 | 1.82 ± 0.096
33 | AGUGCG | 1.7 ± 0.058 | 1.85 ± 0.095
34 | AGUCCA | 1.663 ± 0.0054 | 1.78 ± 0.049
35 | AGUCCU | 1.77 ± 0.023 | 1.87 ± 0.086
36 | AGUCCC | 1.77 ± 0.042 | 1.87 ± 0.069
37 | UGGUCU | 1.75 ± 0.048 | 1.91 ± 0.11
38 | UGGUCC | 1.86 ± 0.085 | 1.98 ± 0.085
39 | UGGUCA | 1.78 ± 0.061 | 1.89 ± 0.067
40 | GGUCCC | 1.83 ± 0.045 | 1.92 ± 0.11
41 | GGUCCG | 1.9 ± 0.057 | 1.96 ± 0.13
42 | GGUCCA | 1.777 ± 0.015 | 1.95 ± 0.022
43 | CGUGUU | 1.6 ± 0.033 | 1.78 ± 0.12
44 | CGUGUC | 1.67 ± 0.055 | 1.82 ± 0.038
45 | CGUGUA | 1.4 ± 0.062 | 1.56 ± 0.13
46 | CGUGUG | 1.678 ± 0.0082 | 1.8 ± 0.092
47 | CGGGGU | 1.72 ± 0.0034 | 1.83 ± 0.13
48 | CGGGGG | 1.62 ± 0.059 | 1.77 ± 0.026

Row | Variant | normalized RNA/DNA level without ligand (log10) (cyclic di-GMP [1]) | normalized RNA/DNA level with ligand (log10) (cyclic di-GMP [2])
49 | AGUGGU | 1.56 ± 0.089 | 1.759 ± 0.014
50 | AGUGGC | 1.6 ± 0.079 | 1.79 ± 0.11
51 | AGUGGA | 1.44 ± 0.11 | 1.62 ± 0.086
52 | AGUCGU | 1.6615 ± 0.0012 | 1.79 ± 0.08
53 | AGUCGG | 1.8 ± 0.051 | 1.87 ± 0.082
54 | AGUCGA | 1.71 ± 0.036 | 1.84 ± 0.081
55 | AGUCGC | 1.731 ± 0.0037 | 1.85 ± 0.12
56 | CGGUUC | 1.55 ± 0.028 | 1.75 ± 0.069
57 | CGGUUG | 1.68 ± 0.14 | 1.812 ± 0.013
58 | CGGUUU | 1.6584 ± 0.0015 | 1.75 ± 0.1
59 | AGUGUA | 1.51 ± 0.042 | 1.66 ± 0.11
60 | AGUGUG | 1.57 ± 0.084 | 1.71 ± 0.13
61 | AGUGUU | 1.617 ± 0.0053 | 1.79 ± 0.12
62 | CGUCCG | 1.82 ± 0.035 | 1.89 ± 0.069
63 | CGUCCC | 1.75 ± 0.029 | 1.9 ± 0.086
64 | CGUCCA | 1.53 ± 0.11 | 1.72 ± 0.1
65 | GGUGUC | 1.66 ± 0.019 | 1.8 ± 0.1
66 | GGUGUU | 1.63 ± 0.037 | 1.86 ± 0.094
67 | GGUGUA | 1.6 ± 0.14 | 1.76 ± 0.14
68 | UGGGAU | 1.55 ± 0.12 | 1.75 ± 0.11
69 | UGGGAG | 1.673 ± 0.012 | 1.79 ± 0.14
70 | CGGUCG | 1.78 ± 0.042 | 1.9 ± 0.13
71 | CGGUCU | 1.56 ± 0.064 | 1.72 ± 0.11
72 | GGGGUA | 1.52 ± 0.018 | 1.62 ± 0.13

Row | Variant | normalized RNA/DNA level without ligand (log10) (cyclic di-GMP [1]) | normalized RNA/DNA level with ligand (log10) (cyclic di-GMP [2])
73 | GGGGUC | 1.654 ± 0.0072 | 1.79 ± 0.12
74 | UGUAAC | 1.718 ± 0.0028 | 1.84 ± 0.12
75 | UGUAAG | 1.73 ± 0.022 | 1.84 ± 0.089
76 | UGUAAU | 1.679 ± 0.01 | 1.84 ± 0.14
77 | UGGGCC | 1.94 ± 0.036 | 1.97 ± 0.081
78 | UGGGCU | 1.81 ± 0.042 | 1.89 ± 0.089
79 | UGGGCG | 1.84 ± 0.035 | 1.92 ± 0.13
80 | UGGGCA | 1.835 ± 0.0077 | 1.93 ± 0.08
81 | GGUAGA | 1.34 ± 0.04 | 1.55 ± 0.1
82 | GGUAGC | 1.671 ± 0.014 | 1.8 ± 0.12
83 | CGGGAU | 1.49 ± 0.05 | 1.64 ± 0.13
84 | UGUAGC | 1.73 ± 0.043 | 1.83 ± 0.15
85 | UGUAGA | 1.67 ± 0.045 | 1.82 ± 0.12
86 | UGUAGG | 1.72 ± 0.035 | 1.85 ± 0.072
87 | CGUACC | 1.74 ± 0.039 | 1.89 ± 0.09
88 | CGUACG | 1.777 ± 0.013 | 1.857 ± 0.017
89 | UGGGUU | 1.717 ± 0.016 | 1.82 ± 0.16
90 | UGGGUA | 1.61 ± 0.071 | 1.78 ± 0.029
91 | UGGGUC | 1.8 ± 0.026 | 1.93 ± 0.11
92 | UGGGUG | 1.73 ± 0.04 | 1.86 ± 0.098
93 | GGUCAC | 1.754 ± 0.014 | 1.87 ± 0.091
94 | GGUCAA | 1.4 ± 0.095 | 1.64 ± 0.092
95 | GGUCAU | 1.56 ± 0.055 | 1.83 ± 0.081
96 | AGUCAU | 1.69 ± 0.071 | 1.85 ± 0.13

Row | Variant | normalized RNA/DNA level without ligand (log10) (cyclic di-GMP [1]) | normalized RNA/DNA level with ligand (log10) (cyclic di-GMP [2])
97 | AGUCAC | 1.67 ± 0.062 | 1.81 ± 0.049
98 | AGUCAG | 1.571 ± 0.011 | 1.73 ± 0.16
99 | AGUCAA | 1.48 ± 0.039 | 1.69 ± 0.1
100 | CGUGCU | 1.64 ± 0.05 | 1.81 ± 0.063
101 | CGUGCC | 1.75 ± 0.02 | 1.84 ± 0.093
102 | AGGUAG | 1.54 ± 0.034 | 1.66 ± 0.046
103 | AGGUAC | 1.67 ± 0.038 | 1.81 ± 0.077
104 | AGGGCG | 1.78 ± 0.0082 | 1.84 ± 0.11
105 | AGGGCU | 1.69 ± 0.034 | 1.85 ± 0.088
106 | AGGGCC | 1.84 ± 0.052 | 1.93 ± 0.068
107 | AGGGCA | 1.756 ± 0.017 | 1.81 ± 0.048
108 | GGGUCA | 1.828 ± 0.013 | 1.91 ± 0.16
109 | GGGUCC | 1.91 ± 0.098 | 1.95 ± 0.14
110 | CGUUAC | 1.57 ± 0.059 | 1.74 ± 0.064
111 | CGUUAG | 1.753 ± 0.0013 | 1.89 ± 0.11
112 | UGUAUG | 1.75 ± 0.045 | 1.9 ± 0.13
113 | UGUAUU | 1.73 ± 0.016 | 1.9 ± 0.091
114 | UGUAUC | 1.734 ± 0.0024 | 1.87 ± 0.11
115 | GGGGCA | 1.752 ± 0.011 | 1.88 ± 0.081
116 | GGGGCC | 1.85 ± 0.069 | 1.94 ± 0.13
